Assay: label from the status in PepcDB records

Sequence: MEAFFRHAERVAHPSPRLRLLLALGHRMRGELDRGLAVLEGFPEEDPALLAEALLAQGTLLGLKGAHGEAEDVFSQGVALGETPLRARFLTSRGAARIRLGRYREAAEDLEEALFLSRKERLKEVEALALHNLAIARHHLGELAEAVRLYREVLPLKTAPLSRAYTLLSLGEALSYLGRFLEAKRTLFRAREEAWASGDYRAMGYTLLNLADLYREAGLPEAEGLYREAEAHLEKAHDPYALGLVHLGLARLGAKGSLERARALFQEGGSPGELAEWHLVAGRLCGRPEHFEEALRLAEKAGAGRLLLLARLELFLKAPSPGEAKALAREVLKAGFQDFWLWERAFPLPLLAFEAGEEGLLEALLAGVGWLRARSLKALEARTEEGPLPLPSRKELLLLLLLWRRKALEAEALARLLFPGSKNPKKRLQVAVHHLREALDPDLVRLEGEAYRAYLPPGVWWDARVKEGLLRWARRLSLPQAQARVEEALPGRFSPQAYLTDP
- protein production: failed

Sequence: MALCGRPARQRSSAGQRYLAVAPARCDHWSPPSVRRVPVGRVGFYPAPVINRDAGGRASMTSQRGFWDRMAERYAARPIKDVAAYEAMLADAAGRLSPSDRVLEIGCGTGGTAIRLAPGVAQWTATDLSPEMVRIASAKPAPPNLSFVVADADLSTGEPPYDAVCAFLILHLVDDIRTTLSAIRDWLKPGGLLLSKTYCIGDMNPALRWGVIPVLQRIGWVPPIKSLMSQQLRAAIAEAGFEIEASRTFGSNSHAHYIVARKPA
- protein production: failed

Sequence: MPIIKSSRVNIGRFTIGGSIPIVIISIFDHDAKSLTEKFETKKLSDKNLYEIRFDLFDKVNIDEELEIIRALDEMDIDYIFTYRGHDPEKIYETAITKMVPAVDMDLSLLNKVNRRSPDTRIMVSYHTDSSKDMIEKLDEMLKANADIVKVACNYKDEKNFFKDLIEIAQRKEISGKPVLFIPMGKSFLRVISAYYVSDMVYAKYDKETAMGQPDPDYYNKAFSLFNYIG
- protein production: failed

Sequence: MGAQKKPAAAKVREDSEDLSRQRLQAILLADSFTTQFRSITLERPKVLLPIVNIPMIDYTLAWLESAGIEEVFVFCCAHSSQIIDYLKKSEWYTRPNPNLLVRTIVSHNSTSVGDALRYIYEQQTETSQIQGDFVLVSGDTVSNMPLADLIQQHRDRKKKDEKAIMTMVFKKQSRLGIGSDQLFVAVDPLTKQLLHYEECNSRGGDFCLDKSLLDSTVLCSDMQDCYIDICSPEVLSLFEDNFDYQHMRRHFVNGLLVDDIMGYKIFTHEIQSSCYAARIDNLRSYDTVSKDIIQRWTYPYVPNIDFSGNRPVKLGRRGIYRASDAVQSHTADVGASTVIGYGTKIGNGGKIYNSVIGNGCCIGSNVVIQGSYIWNNVTIEDGCEIRNAIVCDGVKVRAGAVLQPGVVLSFSVVVGRDFVVPAYSKVSLLQQPTTEDSDEELEYADSSSGTADHSSGLNNLQIESKASELGPDGAGYIWEICDSAHDEEWKHSVVPIPMDKLADITGAMDDDDIEDDIVVPPSGELKSDTDIINTDANDSYGDFEREVEEEFLSAVEKDNKADIVIPLINSHRLAYNMDSADCAGAVFYSMMRLAVKSPHNSATELYRNAMGVITKWKGVLGFYLKQTDAQIEVIMKFEEMCQESEELSPLFAKLLPFLYDKDVVQEDAILRWGEEKAGADDCDKVYLNKCESFIKWLKEASEEEEEDS
- protein production: failed

Sequence: MASSVLEMIKEEVTCPICLELLKEPVSADCNHSFCRACITLNYESNRNTDGKGNCPVCRVPYPFGNLKPNLHVANIVERLKGFKSIPEEEQKVNICAQHGEKLRLFCRKDMMVICWLCERSQEHRGHQTALIEEVDQEYKEKLQGALRKLMKKAKICDEWQDDLQLQRVDWENQIQINVENVQRQFKGLRDLLDSKENEELQKLKKEKKEVMEKLEESENELEDQTELVRDLISDVEHHLQLSTLEMLQGANCVLRRSQSLSLQQPQSVPQKRKRTFQAPDLKGMLQVYQGLMDIQQYWVHMTLHARNNAVIAINKEKRQIQYRSYNTVPVSEIYHLGVLGYPALSSGKHYWEVDISRSDAWLLGLNDGKCAQPQLHSKEEMGIKKNLHSQIKQNVLFQPKCGYWVIGMKNPSVYNAFDECSITHNSSILVISLPDCPSRVGVFLDRKAGTLSFYDVSNCGALIYRFYDPAFPVEVYPYFNPMKCSEPMTICGPPS
- protein production: not failed

Sequence: MKKLVLTGAAGRLGSYLREPLTALCDTLVSTDIVDDIGTLYAGETYVKADLAQMDQIAPVLEGADMVVHFGAIVDEKPFEELLGPNFVGSYNIWEAGYKAGVKRIVYASSIHAVGMHLKSDFIGIDAEHRPDTFYGLAKCFTEDLGRMYWDKRGLESVHLRILSCAQVNNTRALGSWLSYPDLIQLVTRAIDTPSVGFSIIYGVSNNDRAPVDNAKASFLGYRPIDNAEVYAAEVLAQAEPVDTTDPGQMCHGGPFAKVDLGQSGLAQMNVVNDKKQT
- protein production: failed

Source: a protein production outcome set (Wang et al. 2014)
